According to article PMC5401896 (2017):

What was measured:
CD20 [1] = target: T1, CD20 (Homo sapiens, UniProt P11836); assay: real-time cell binding (bivalent, Daudi)
T1 chain: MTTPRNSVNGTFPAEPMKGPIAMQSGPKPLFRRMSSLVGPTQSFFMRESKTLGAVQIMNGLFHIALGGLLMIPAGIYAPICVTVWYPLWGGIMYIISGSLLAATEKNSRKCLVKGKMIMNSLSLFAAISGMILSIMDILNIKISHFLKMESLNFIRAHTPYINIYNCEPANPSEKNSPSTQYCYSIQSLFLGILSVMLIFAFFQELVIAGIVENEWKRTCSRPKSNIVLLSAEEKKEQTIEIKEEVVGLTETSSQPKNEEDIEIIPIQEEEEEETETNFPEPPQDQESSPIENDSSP

CD20 [2] = target: T1, CD20; assay: real-time cell binding (one-to-two, Daudi)
CD20 [3] = target: T1, CD20; assay: real-time cell binding (one-to-one, Ramos)

B1: Rituximab (antibody, V domains shown)
VH: QVQLQQPGAELVKPGASVKMSCKASGYTFTSYNMHWVKQTPGRGLEWIGAIYPGNGDTSYNQKFKGKATLTADKSSSTAYMQLSSLTSEDSAVYYCARSTYYGGDWYFNVWGAGTTVTVSA
VL: QIVLSQSPAILSASPGEKVTMTCRASSSVSYIHWFQQKPGSSPKPWIYATSNLASGVPVRFSGSGSGTSYSLTISRVEAEDAATYYCQQWTSNPPTFGGGTKLEIK
- Kd (CD20 [1]): 7.8 nM
- Kd (CD20 [2]): 0.2 nM
- Kd (CD20 [3]): 0.7 nM
